# Source: paper PMC9710867, “Molecular architecture of the Chikungunya virus replication complex” (Science Advances, 2022)
# B1: ONNV nsP4, full length (amino acids 1904 to 2514) (enzyme)
# chain: IFSSDTGQGHLQQKSVRQTTLPVNIVEEVHEEKCYPPKLDEIKEQLLLKRLQESASTANRSRYQSRKVENMKATIIHRLKEGCRLYLASDTPRVPSYRITYPAPVYSPSISIKLNNPETAVAVCNEFLARNYPTVASYQVTDEYDAYLDMVDGSESCLDRATFNPSKLRSYPKQHSYHAPTIRSAVPSPFQNTLQNVLAAATKRNCNVTQMRELPTMDSAVFNVECFKKYACNQEYWREFASSPIRVTTENLTMYVTKLKGPKAAALFAKTHNLLPLQEVPMDRFTMDMKRDVKVTPGTKHTEERPKVQVIQAAEPLATAYLCGIHRELVRRLNAVLLPNVHTLFDMSAEDFDAIISTHFKPGDAVLETDIASFDKSQDDSLALTAMMLLEDLGVDQPILDLIEAAFGEISSCHLPTGTRFKFGAMMKSGMFLTLFVNTLLNITIASRVLEERLTTSACAAFIGDDNIIHGVVSDALMAARCATWMNMEVKIIDAVVSEKAPYFCGGFILHDTVTGTSCRVADPLKRLFKLGKPLAAGDEQDEDRRRALADEVTRWQRTGLITELEKAVYSRYEVQGITAVITSMATFASSKENFKKLRGPVVTLYGGPK
# notes: Contact residues in the text (D219, E392, D393, D402, E405; NTD 1 to 105) count on nsP4 itself; also called o'nyong-nyong virus nsP4; nsP4 RdRp
# B2: CHIKV nsP1 mutant (H37A; amino acids 1 to 535) with internal StrepII-3XFLAG (enzyme)
# chain: MDPVYVDIDADSAFLKALQRAYPMFEVEPRQVTPNDAANARAFSHLAIKLIEQEIDPDSTILDIGSAPARRMMSDRKYHCVCPMRSAEDPERLANYARKLASAAGKVLDRNISGKIGDLQAVMAVPDTETPTFCLHTDVSCRQRADVAIYQDVYAVHAPTSLYHQAIKGVRLAYWVGFDTTPFMYNAMAGAYPSYSTNWADEQVLKAKNIGLCSTDLTEGRRGKLSIMRGKKLEPCDRVLFSVGSTLYPESRKLLKSWHLPSVFHLKGKLSFTCRCDTVVSCEGYVVKRITMSPGLYGKTTGYAVTHHADGFLMCKTTDTVDGERVSFSVCTYVPATICDQMTGILATEVTPEDAQKLLVGLNQRIVVNGRTQRNTNTMKNYMIPVVAQAFSKWAKECRKDMEDEKLLGVRERTLTCCCLWAFKKQKTHTVYKRPDTQSIQKVQAEFDSFVVPSLWSSGLSIPLRTRIKWLLSKVPKTDLTPYSGDAQEARDAEKEAEEEREAELTLEALPPLQAAQEDVQVEIDVEQLEDRAGA
# notes: nonstructural protein 1 (nsP1) of chikungunya virus, amino acids 1 to 535 of the nonstructural polyprotein; also called nsP1 ring; nsP1 dodecameric ring; not shown: StrepII, internal (after residue 516), kept; copies: 12
# Tests used:
# Experiment in all cases: cryo-EM structure; single-particle cryo-EM of the reconstituted nsP1 + 2 + 4 RC core mixed with T2 RNA and NTP in 1x buffer Z at 1:10:100 molar ratio; C1, 2.8 Å
# [1] = molecular target: B1; conditions: both partners purified
# [2] = molecular target: B2; conditions: both partners purified
# [3] = molecular target: the molecule itself
binder,measurement,setting,value
"CHIKV nsP2, full length (amino acids 536 to 1333) (enzyme, nonstructural protein 2 (nsP2) of chikungunya virus, full length, amino acids 536 to 1333 of the nonstructural polyprotein; Contact residues in the text (R56, R59, Y60, R101; nsP2h 1 to 465) count on nsP2 itself; The His6-SUMO tag is called cleavable; Only the helicase region is built in the cryo-EM model; also called nsP2 helicase-protease) GIIETPRGAIKVTAQPTDHVVGEYLVLSPQTVLRSQKLSLIHALAEQVKTCTHSGRAGRYAVEAYDGRVLVPSGYAISPEDFQSLSESATMVYNEREFVNRKLHHIAMHGPALNTDEESYELVRAERTEHEYVYDVDQRRCCKKEEAAGLVLVGDLTNPPYHEFAYEGLKIRPACPYKIAVIGVFGVPGSGKSAIIKNLVTRQDLVTSGKKENCQEITTDVMRQRGLEISARTVDSLLLNGCNRPVDVLYVDEAFACHSGTLLALIALVRPRQKVVLCGDPKQCGFFNMMQMKVNYNHNICTQVYHKSISRRCTLPVTAIVSSLHYEGKMRTTNEYNKPIVVDTTGSTKPDPGDLVLTCFRGWVKQLQIDYRGHEVMTAAASQGLTRKGVYAVRQKVNENPLYASTSEHVNVLLTRTEGKLVWKTLSGDPWIKTLQNPPKGNFKATIKEWEVEHASIMAGICSHQMTFDTFQNKANVCWAKSLVPILETAGIKLNDRQWSQIIQAFKEDKAYSPEVALNEICTRMYGVDLDSGLFSKPLVSVYYADNHWDNRPGGKMFGFNPEAASILERKYPFTKGKWNINKQICVTTRRIEDFNPTTNIIPANRRLPHSLVAEHRPVKGERMEWLVNKINGHHVLLVSGCSLALPTKRVTWVAPLGVRGADYTYNLELGLPATLGRYDLVVINIHTPFRIHHYQQCVDHAMKLQMLGGDSLRLLKPGGSLLIRAYGYADRTSERVICVLGRKFRSSRALKPPCVTSNTEMFFLFSNFDNGRRNFTTHVMNNQLNAAFVGQATRAGC",stoichiometry N,[1],1 nsP2 per nsP4
B1,stoichiometry N,[2],12 nsP1 per nsP4
B2,stoichiometry N,[3],12
